Target: p53 DNA-binding domain (residues 92-312), recombinant untagged (Homo sapiens, UniProt P04637)
Test: ITC

Sequence of p53 DNA-binding domain (residues 92-312), recombinant untagged (P04637 92-312): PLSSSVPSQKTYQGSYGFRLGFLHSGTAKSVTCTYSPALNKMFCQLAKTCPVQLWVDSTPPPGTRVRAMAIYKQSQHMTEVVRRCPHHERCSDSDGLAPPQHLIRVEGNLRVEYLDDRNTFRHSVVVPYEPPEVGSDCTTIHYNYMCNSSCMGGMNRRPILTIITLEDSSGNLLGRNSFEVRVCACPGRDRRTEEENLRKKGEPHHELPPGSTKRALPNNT

- Kd: ~1000 nM
- stoichiometry N: 1
B1: p53 DBD nanobody 139, recombinant V5-tagged (VHH)
VHH: QVQLQESGGGLVQAGGSLRLSCAASERTFSTYAMGWFRQAPGREREFLAQINWSGTTTYYAESVKDRTTISRDNAKNTVYLEMNNLNADDTGIYFCAAHPQRGWGSTLGWTYWGQGTQVTVSS
